Data from patent US20030208037A1 (CYTOVIA, published 2003).
*: point of attachment. TFB = 2,3,4,5-tetrafluorobenzoyl; PFB = pentafluorobenzoyl; Cbz = O=C(OCc1ccccc1)*; R110 = rhodamine 110

T1: recombinant caspase-3 (UniProt P42574 29-277, limits assumed)
T1 sequence (looked up): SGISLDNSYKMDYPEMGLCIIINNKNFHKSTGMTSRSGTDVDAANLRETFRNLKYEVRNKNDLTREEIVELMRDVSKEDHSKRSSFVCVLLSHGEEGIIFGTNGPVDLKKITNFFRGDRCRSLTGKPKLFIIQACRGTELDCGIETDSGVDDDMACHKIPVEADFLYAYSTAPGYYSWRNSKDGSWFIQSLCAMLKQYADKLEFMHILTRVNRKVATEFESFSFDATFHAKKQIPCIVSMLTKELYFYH


Target: T1, recombinant caspase-3
Test: cell-based or functional assay

| increase in fluorescence on cleavage of the substrate (cell-free enzyme assay, 10 uM substrate, 3 hours at 37 C) [fold] | increase in fluorescence on cleavage of the substrate (cell-free enzyme assay) [fold] | Binder |
| --- | --- | --- |
| ~50 |  | Ac-DEVD-{R110-TFB} [N-(Ac-DEVD)-N'-(2,3,4,5-tetrafluorobenzoyl)-R110] |
|  | > 10 | Cbz-DEVD-{R110-PFB} [N-(Z-Asp-Glu-Val-Asp)-N'-pentafluorobenzoyl-Rhodamine 110] |
